Source: publication PMC11500499, “Molecular dissection of the chromosome partitioning protein RocS and regulation by phosphorylation”

Biological target: T1, RocS WT-ΔAH (Streptococcus pneumoniae R6, UniProt Q8DQ15 1-152)
T1 sequence: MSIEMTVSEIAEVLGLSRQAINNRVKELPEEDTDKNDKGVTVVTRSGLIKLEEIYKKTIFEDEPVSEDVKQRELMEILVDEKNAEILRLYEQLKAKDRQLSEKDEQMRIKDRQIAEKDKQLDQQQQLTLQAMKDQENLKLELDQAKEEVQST
Assay: MST; MST: 25 mM Tris/HCl pH 7.5, 100 mM NaCl, 5% glycerol, 0.025% Tween-20, 25 C, 10 nM DNA probe; EMSA: 25 mM Tris/HCl pH 7.5, 100 mM NaCl, 5% glycerol, 100 ng DNA
Conditions: protein: recombinant; tags: C-terminal 6xHis, removed with TEV protease; label: 5' Cy5 on strand 1; blunt

B1: dnaC_Cy5 (dsDNA)
DNA 1: GTCAACCAAGCTTACGAAGCGTCACAACCAGCTGATGAAATTATTGCTCA
DNA 2: TGAGCAATAATTTCATCAGCTGGTTGTGACGCTTCGTAAGCTTGGTTGAC
Kd: 34 µM
